Results reported in patent US20100144634A1 (published 2010).
One block for each molecule: values may come before it.

Columns and labels:
[1] = molecular target: von Willebrand factor (VWF), purified plasma-derived, multimeric, native (UniProt P04275); test: cell-based or functional assay
[2] = molecular target: recombinant vWF expressed in BHK cells overexpressing PACE/furin (UniProt P04275); test: cell-based or functional assay
[3] = molecular target: von Willebrand factor (VWF), purified plasma-derived, multimeric, native (UniProt P04275)
[4] = molecular target: von Willebrand factor (VWF), purified plasma-derived, multimeric, native (UniProt P04275); test: microtiter binding assay, immobilised vWF
[5] = molecular target: von Willebrand factor (VWF), purified plasma-derived, multimeric, native (UniProt P04275); test: SPR (BIAcore), VWF injected under flow over immobilised T5-8CUB, equilibrium fit
[6] = molecular target: von Willebrand factor (VWF), purified plasma-derived, multimeric, native (UniProt P04275); test: SPR (BIAcore), VWF injected under flow over immobilised T2-8CUB, equilibrium fit
[7] = molecular target: von Willebrand factor (VWF), purified plasma-derived, multimeric, native (UniProt P04275); test: SPR (BIAcore) under flow

Km of the enhancement of VWF cleavage by ADAMTS13 [1]: 2 to 3 nM | concentration of FVIII required for half maximal enhancement in product formation [1]: 3 nM | enhancement of ADAMTS13 cleavage of plasma vWF (350K product) in the presence of 10-20 nM FVIII [1]: 10 to 12 fold | half maximal effect of rFVIII on proteolytic cleavage of VWF by ADAMTS13 [1]: 2.9 nM | half-maximal effect of FVIII on cleavage of rvWF by ADAMTS13 [2]: 3 nM | increase in product formation with rvWF as substrate in the presence of 20 nM FVIII [2]: 10 fold
Molecule: recombinant human full-length coagulation factor VIII (from UniProt P00451 20-1667; P00451 1668-2351)

Molecule: ADAMTS13 variant truncated after the spacer domain, C-terminal V5-His
cleavage of VWF under vortex-induced mechanic shear stress [3]: A removal of the CUB domains (delCUB) or more (MDTCS) abrogates its ability to cleave VWF

Molecule: ADAMTS13 variant truncated after the 8th TSP-1 repeat (lacking the CUB domains), C-terminal V5-His
cleavage of VWF under vortex-induced mechanic shear stress [3]: A removal of the CUB domains (delCUB) or more (MDTCS) abrogates its ability to cleave VWF

concentration of FVIII-LC achieving the half maximal rate enhancing effect (IC50) [1]: 2 nM | increase of the maximal proteolytic cleavage product (˜350 kDa) with 5 nM FVIII-LC [1]: 7 to 8 fold | Kd [4]: 17 nM
Molecule: isolated light chain of FVIII (from UniProt P00451 1668-2351)

Kd [5]: 212 nM | inhibition of proteolytic cleavage of VWF by ADAMTS13 under vortex-induced shear stress, fragment at 150 nM [1]: 75%
Molecule: ADAMTS13 TSP1 5-8 repeats plus CUB domains, N-terminal linker and Flag, C-terminal V5-His (from UniProt Q76LX8 884-1191; Q76LX8 1192-1427)

half-maximal effect on vWF proteolysis by ADAMTS13 [1]: 2.5 nM | increase in vWF proteolysis by ADAMTS13 under shear stress [1]: 10 fold
Molecule: B-domainless derivative of human factor VIII, FVIII-SQ (from UniProt P00451 20-762; P00451 1657-1667; P00451 1668-2351)

Kd [6]: 140 nM | inhibition of proteolytic cleavage of VWF by ADAMTS13 under vortex-induced shear stress, fragment at 150 nM [1]: 100% | fold increase in affinity against T5-8CUB [7]: 1.5 fold
B1: ADAMTS13 TSP1 2-8 repeats plus CUB domains, N-terminal linker and Flag, C-terminal V5-His (protein, not shown: small tags and cut ends)
chain: AAQPARRARRTKLALDTKDDDDKHVWTPVAWVWAAVRGPCSVSCGAGLRWVNYSCLDQARKELVETVQCQGSQQPPAWPEACVLEPCPPYWAVGDFGPCSASCGGGLRERPVRCVEAQGSLLKTLPPARCRAGAQQPAVALETCNPQPCPARWEVSEPSSCTSAGGAGLALENETCVPGADGLEAPVTEGPGSVDEKLPAPEPCVGMSCPPGWGHLDATSAGEKAPSPWGSIRTGAQAAHVWTPAAGSCSVSCGRGLMELRFLCMDSALRVPVQEELCGLASKPGSRREVCQAVPCPARWQYKLAACSVSCGRGVVRRILYCARAHGEDDGEEILLDTQCQGLPRPEPQEACSLEPCPPRWKVMSLGPCSASCGLGTARRSVACVQLDQGQDVEVDEAACAALVRPEASVPCLIADCTYRWHVGTWMECSVSCGDGIQRRRDTCLGPQAQAPVPADFCQHLPKPVTVRGCWAGPCVGQGTPSLVPHEEAAAPGRTTATPAGASLEWSQARGLLFSPAPQPRRLLPGPQENSVQSSACGRQHLEPTGTIDMRGPGQADCAVAIGRPLGEVVTLRVLESSLNCSAGDMLLLWGRLTWRKMCRKLLDMTFSSKTNTLVVRQRCGRPGGGVLLRYGSQLAPETFYRECDMQLFGPWGEIVSPSLSPATSNAGGCRLFINVAPHARIAIHALATNMGAGTEGANASYILIRDTHSLRTTAFHGQQVLYWESESSQAEMEFSEGFLKAQASLRGQYWTLQSWVPEMQDPQSWKGKEGT
